This is an account of results in patent US20250340613A1 (JOINT STOCK COMPANY BIOCAD, published 2025).

Test [1] addresses T1, C-Avi-His-TEVs-HSA_hBCMA, Tumor necrosis factor receptor superfamily member 17 (Homo sapiens) aa 1-54 (Homo sapiens, UniProt Q02223 1-54).
T1 construct: range 1-54; not shown: Avi, His, TEV site and HSA parts as the name implies
T1 sequence (looked up): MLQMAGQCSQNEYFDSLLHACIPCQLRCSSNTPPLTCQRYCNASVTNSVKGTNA
Description: BLI Octet RED 384; antibody on ProA sensor, antigen 30 ug/ml (391.2 nM); response at end of association. The procedure: (§1) Experimental study of nonspecific binding of bispecific chimeric antibodies to non-target antigens was performed on Forte Bio Octert RED 384. Protein A (ProA) biosensors (ForteBio) were immersed into a solution containing antibodies at a concentration of 10 μg/ml for 150 seconds to immobilize same. The baseline was recorded in a 1×KB solution for 30 seconds. The antibody-loaded sensors were then immersed into wells containing non-target antigens at a concentration of 30 μg/ml for 150 seconds. Complex dissociation was then recorded for 30 seconds.
(§2) The reference sensors went through all the steps as the sensors used to record analyte sensograms did, with the exception of the association step—at the association step, the sensors were immersed in a kinetic buffer solution without analyte (the reference sensor signals were measured in parallel with the recording of the main sensograms). The reference signal was subtracted from the signal received on sensors interacting with the analyte during the processing of sensograms.
(§3) Sensograms were processed using ForteBio Octet Data Analysisn 9.0 software. To report no non-specific interaction, the recorded signal level was checked at the end of the association step (the response parameter).
(In general: Biolayer interferometry detects binding as a change in optical thickness at a sensor tip.)

For test [2], the target named is T2, hIL4R-His, Interleukin-4 receptor subunit alpha (Homo sapiens) aa 27-227 (Homo sapiens, UniProt P24394 27-227).
T2 construct: range 27-227; not shown: His tag as the name implies
T2 sequence (looked up): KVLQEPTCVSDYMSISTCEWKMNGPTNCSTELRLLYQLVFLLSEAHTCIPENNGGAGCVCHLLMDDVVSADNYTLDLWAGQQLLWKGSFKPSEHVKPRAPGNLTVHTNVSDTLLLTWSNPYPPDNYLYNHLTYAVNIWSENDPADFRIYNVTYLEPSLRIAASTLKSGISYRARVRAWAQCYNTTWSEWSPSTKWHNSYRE
Description: BLI Octet RED 384; antibody on ProA sensor, antigen 30 ug/ml (1154 nM); response at end of association. The procedure: as §1, §2, §3

Test [3] deals with T3, hisOX40, Tumor necrosis factor receptor superfamily member 4 (Homo sapiens) aa 26-210 (Homo sapiens, UniProt P43489 26-210).
T3 construct: range 26-210; The tag is put first only because the name begins with His; not shown: His tag as the name implies
T3 sequence (looked up): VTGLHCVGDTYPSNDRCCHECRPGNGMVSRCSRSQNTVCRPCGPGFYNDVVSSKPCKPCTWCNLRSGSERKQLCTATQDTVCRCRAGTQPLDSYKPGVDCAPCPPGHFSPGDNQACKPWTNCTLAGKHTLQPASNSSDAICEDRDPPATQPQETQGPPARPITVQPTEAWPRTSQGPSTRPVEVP
Description: BLI Octet RED 384; antibody on ProA sensor, antigen 30 ug/ml (1310 nM); response at end of association. On the procedure:
as §1, §2, §3

For test [4], the target named is T4, hAng2_H6F, Angiopoietin-2 (Homo sapiens) aa 19-496 (Homo sapiens, UniProt O15123 19-496).
T4 construct: also called hAng-H6F; not shown: His and FLAG tags implied by the name 'H6F'
T4 sequence: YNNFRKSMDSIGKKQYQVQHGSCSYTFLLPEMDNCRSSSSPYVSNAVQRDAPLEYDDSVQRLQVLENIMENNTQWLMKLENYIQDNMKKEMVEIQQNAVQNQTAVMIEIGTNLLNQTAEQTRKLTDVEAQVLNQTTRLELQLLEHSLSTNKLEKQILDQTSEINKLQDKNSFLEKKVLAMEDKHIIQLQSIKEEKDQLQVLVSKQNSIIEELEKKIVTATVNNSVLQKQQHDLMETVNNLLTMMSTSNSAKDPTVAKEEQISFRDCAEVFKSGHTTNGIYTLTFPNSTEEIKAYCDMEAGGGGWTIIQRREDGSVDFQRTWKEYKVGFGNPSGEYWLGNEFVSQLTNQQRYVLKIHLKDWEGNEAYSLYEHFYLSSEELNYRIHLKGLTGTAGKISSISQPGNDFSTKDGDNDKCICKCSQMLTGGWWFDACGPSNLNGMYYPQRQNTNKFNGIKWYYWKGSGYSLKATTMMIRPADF
As to the kind of experiment: BLI Octet RED 384; antibody on ProA sensor, antigen 30 ug/ml (510.2 nM); response at end of association. On the procedure: as §1, §2, §3

The target of test [5] is T5, extracellular domain of the human CSF1R protein (hCSF1R_His) (Homo sapiens, UniProt P07333 20-512).
T5 construct: range 20-512; Molecular weight 57.4 kDa; made in CHO cells; also called hCSF1_His; not shown: C-terminal His and FLAG tags
Description: BLI Octet RED 384; antibody on ProA sensor, antigen 30 ug/ml (522.5 nM); response at end of association. The procedure: as §1, §2, §3

The target of test [6] is T6, IL5R-His, Interleukin-5 receptor subunit alpha (Homo sapiens) aa 22-342 (Homo sapiens, UniProt Q01344 22-342).
T6 construct: not shown: His tag as the name implies
T6 sequence (looked up): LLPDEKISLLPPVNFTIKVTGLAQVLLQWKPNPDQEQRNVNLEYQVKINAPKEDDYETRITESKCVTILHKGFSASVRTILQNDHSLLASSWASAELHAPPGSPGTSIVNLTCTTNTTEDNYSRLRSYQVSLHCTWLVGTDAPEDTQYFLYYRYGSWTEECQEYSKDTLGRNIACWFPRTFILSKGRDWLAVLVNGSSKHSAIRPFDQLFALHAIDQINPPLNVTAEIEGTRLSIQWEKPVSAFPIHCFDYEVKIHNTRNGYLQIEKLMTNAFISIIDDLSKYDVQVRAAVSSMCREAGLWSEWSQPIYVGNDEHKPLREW
As to the kind of experiment: BLI Octet RED 384; antibody on ProA sensor, antigen 30 ug/ml (757.6 nM); response at end of association. On the procedure: as §1, §2, §3

Test [7] addresses T7, hCD38-Avi, ADP-ribosyl cyclase/cyclic ADP-ribose hydrolase 1 (Homo sapiens) aa 43-300 (Homo sapiens, UniProt P28907 43-300).
T7 construct: range 43-300; not shown: Avi tag as the name implies
T7 sequence (looked up): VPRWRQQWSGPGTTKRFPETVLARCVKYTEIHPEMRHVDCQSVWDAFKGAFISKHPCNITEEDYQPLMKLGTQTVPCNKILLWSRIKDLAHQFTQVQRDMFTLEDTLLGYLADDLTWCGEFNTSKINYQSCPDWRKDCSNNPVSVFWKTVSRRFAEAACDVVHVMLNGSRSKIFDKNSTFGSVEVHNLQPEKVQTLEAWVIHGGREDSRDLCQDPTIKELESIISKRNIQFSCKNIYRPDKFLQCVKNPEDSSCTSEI
As to the kind of experiment: BLI Octet RED 384; antibody on ProA sensor, antigen 30 ug/ml (854.7 nM); response at end of association. On the procedure: as §1, §2, §3

T5 sequence (P07333 20-512 limits assumed): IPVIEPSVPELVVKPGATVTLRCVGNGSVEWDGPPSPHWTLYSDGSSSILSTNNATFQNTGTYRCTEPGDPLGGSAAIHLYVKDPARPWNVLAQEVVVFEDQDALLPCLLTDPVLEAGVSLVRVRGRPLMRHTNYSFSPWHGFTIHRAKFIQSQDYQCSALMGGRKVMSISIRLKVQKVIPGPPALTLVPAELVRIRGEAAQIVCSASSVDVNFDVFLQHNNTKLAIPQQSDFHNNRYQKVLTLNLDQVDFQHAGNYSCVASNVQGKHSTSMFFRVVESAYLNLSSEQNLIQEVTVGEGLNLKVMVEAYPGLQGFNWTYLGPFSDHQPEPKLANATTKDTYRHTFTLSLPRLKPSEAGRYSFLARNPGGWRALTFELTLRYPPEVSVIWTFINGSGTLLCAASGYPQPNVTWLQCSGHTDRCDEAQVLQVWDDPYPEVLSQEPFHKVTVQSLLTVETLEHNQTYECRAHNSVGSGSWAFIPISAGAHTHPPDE

B1: 02-005, bivalent bispecific chimeric antibody that specifically binds to PD1 and CD20 (bispecific antibody, human IgG1, kappa, L234A L235A)
heavy 1: EVQLVESGGGLVQPGGSLRLSCAASGYTFTSYNMHWVRQAPGKGLEWVGAIYPGNGDTSYNQKFKGRFTISVDKSKNTLYLQMNSLRAEDTAVYYCARVVYYSNSYWYFDVWGQGTLVTVSSASTKGPSVFPLAPSSKSTSGGTAALGCLVKDYFPEPVTVSWNSGALTSGVHTFPAVLQSSGLYSLSSVVTVPSSSLGTQTYICNVNHKPSNTKVDKRVEPKSCDKTHTCPPCPAPEAAGGPSVFLFPPKPKDTLYITREPEVTCVVVDVSHEDPEVKFNWYVDGVEVHNAKTKPREEQYNSTYRVVSVLTVLHQDWLNGKEYKCKVSNKALPAPIEKTISKAKGQPREPQVCTLPPSRDELTKNQVSLSCAVKGFYPSDIAVEWESNGQPENNYKTTPPVLDSDGSFFLVSKLTVDKSRWQQGNVFSCSVMHEALHNHYTQKSLSLSPGK
light 1: DIQMTQSPSSLSASVGDRVTITCRASSSVSYMHWYQQKPGKAPKPLIYAPSNLASGVPSRFSGSGSGTDFTLTISSLQPEDFATYYCQQWSFNPPTFGQGTKVEIKRTVAAPSVFIFPPSDEQLKSGTASVVCLLNNFYPREAKVQWKVDNALQSGNSQESVTEQDSKDSTYSLSSTLTLSKADYEKHKVYACEVTHQGLSSPVTKSFNRGEC
heavy 2: not shown
light 2: QPVLTQPLSVSVALGQTARITCGGNNIGSKNVHWYQQKPGQAPVLVIYRDSNRPSGIPERFSGSNSGNTATLTISRAQAGDEADYYCQVWDSSTAVFGTGTKLTVLQQRQVKPEAWLSSGPSPGPGRLQLVCHVSGFYPKPVWVMWMRGEQEQQGTQLGDILPNANWTWYLRATLDVADGEAAGLSCRVKHSSLEGQDIILYWRGSC
notes: Produced in CHO cells
In the case of B1, the “Signal level (nm)” value is 0.0021 nm in test [1]; -0.0057 nm in test [2]; -0.0169 nm in test [3]; -0.0194 nm in test [4]; 0.0034 nm in test [5]; 0.0225 nm in test [6]. The “Signal level (nm)” value in test [7] stood at 0.0072 nm.

B2: 02-004, bivalent bispecific chimeric antibody that specifically binds to PD1 and CD20 (bispecific antibody, human IgG1, kappa, L234A L235A)
heavy 1: QVQLVQSGGGLVQPGGSLRLSCAASGFTFSSYWMYWVRQVPGKGLEWVSAIDTGGGRTYYADSVKGRFAISRVNAKNTMYLQMNSLRAEDTAVYYCARDEGGGTGWGVLKDWPYGLDAWGQGTLVTVSSASTKGPSVFPLAPSSKSTSGGTAALGCLVKDYFPEPVTVSWNSGALTSGVHTFPAVLQSSGLYSLSSVVTVPSSSLGTQTYICNVNHKPSNTKVDKRVEPKSCDKTHTCPPCPAPEAAGGPSVFLFPPKPKDTLYITREPEVTCVVVDVSHEDPEVKFNWYVDGVEVHNAKTKPREEQYNSTYRVVSVLTVLHQDWLNGKEYKCKVSNKALPAPIEKTISKAKGQPREPQVCTLPPSRDELTKNQVSLSCAVKGFYPSDIAVEWESNGQPENNYKTTPPVLDSDGSFFLVSKLTVDKSRWQQGNVFSCSVMHEALHNHYTQKSLSLSPGK
light 1: QPVLTQPLSVSVALGQTARITCGGNNIGSKNVHWYQQKPGQAPVLVIYRDSNRPSGIPERFSGSNSGNTATLTISRAQAGDEADYYCQVWDSSTAVFGTGTKLTVLQRTVAAPSVFIFPPSDEQLKSGTASVVCLLNNFYPREAKVQWKVDNALQSGNSQESVTEQDSKDSTYSLSSTLTLSKADYEKHKVYACEVTHQGLSSPVTKSFNRGEC
heavy 2: not shown
light 2: DIQMTQSPSSLSASVGDRVTITCRASSSVSYMHWYQQKPGKAPKPLIYAPSNLASGVPSRFSGSGSGTDFTLTISSLQPEDFATYYCQQWSFNPPTFGQGTKVEIKQRQVKPEAWLSSGPSPGPGRLQLVCHVSGFYPKPVWVMWMRGEQEQQGTQLGDILPNANWTWYLRATLDVADGEAAGLSCRVKHSSLEGQDIILYWRGSC
notes: Produced in CHO cells
B2: the “Signal level (nm)” value in test [1] came out at 0.0108 nm; in test [2] it was 0.0102 nm; in test [3], 0.0103 nm; in test [4], 0.0212 nm; in test [5] it was 0.0103 nm; in test [6] it was 0.0249 nm. In test [7], the “Signal level (nm)” value came out at 0.004 nm.

B3: 02-009, bivalent bispecific chimeric antibody that specifically binds to CD20 and CSF1R (bispecific antibody, human IgG1, kappa, L234A L235A)
heavy 1: QVQLVESGGGLVRPGGSLRLSCAASEFTFDDYAMSWVRQAPGKGLEWVSAISWNGGSTNYADSVKGRFTISRDNAKNSLYLQMNSLRAEDTALYYCASTVEVAHRRLYKYLEVWGQGTLVTVSSASTKGPSVFPLAPSSKSTSGGTAALGCLVKDYFPEPVTVSWNSGALTSGVHTFPAVLQSSGLYSLSSVVTVPSSSLGTQTYICNVNHKPSNTKVDKRVEPKSCDKTHTCPPCPAPEAAGGPSVFLFPPKPKDTLYITREPEVTCVVVDVSHEDPEVKFNWYVDGVEVHNAKTKPREEQYNSTYRVVSVLTVLHQDWLNGKEYKCKVSNKALPAPIEKTISKAKGQPREPQVCTLPPSRDELTKNQVSLSCAVKGFYPSDIAVEWESNGQPENNYKTTPPVLDSDGSFFLVSKLTVDKSRWQQGNVFSCSVMHEALHNHYTQKSLSLSPGK
light 1: QAGLTQPPSVSVAPGQTARITCGGNNIGSKSVHWYQQKPGQAPVLVVYGDSDRPSGIPERFSGSNSGNTATLTISRVEAGDEADYYCQVWDISSDHVVFGGGTQLTVLRTVAAPSVFIFPPSDEQLKSGTASVVCLLNNFYPREAKVQWKVDNALQSGNSQESVTEQDSKDSTYSLSSTLTLSKADYEKHKVYACEVTHQGLSSPVTKSFNRGEC
heavy 2: not shown
light 2: DIQMTQSPSSLSASVGDRVTITCRASSSVSYMHWYQQKPGKAPKPLIYAPSNLASGVPSRFSGSGSGTDFTLTISSLQPEDFATYYCQQWSFNPPTFGQGTKVEIKQRQVKPEAWLSSGPSPGPGRLQLVCHVSGFYPKPVWVMWMRGEQEQQGTQLGDILPNANWTWYLRATLDVADGEAAGLSCRVKHSSLEGQDIILYWRGSC
notes: Produced in CHO cells
Regarding B3, the “Signal level (nm)” value in test [1] is -0.0154 nm; in test [2] it was -0.0036 nm; in test [3], -0.0158 nm; in test [4] it was -0.0114 nm; in test [5], 0.564 nm; in test [6] it was -0.0064 nm. Also, in test [7], the “Signal level (nm)” value is -0.0089 nm.
